From US20030175837A1 come the findings set out here.

Experiment [1] has as its target T1, human lymphotoxin (TNFβ) (human) (UniProt P01374).
T1 sequence (looked up): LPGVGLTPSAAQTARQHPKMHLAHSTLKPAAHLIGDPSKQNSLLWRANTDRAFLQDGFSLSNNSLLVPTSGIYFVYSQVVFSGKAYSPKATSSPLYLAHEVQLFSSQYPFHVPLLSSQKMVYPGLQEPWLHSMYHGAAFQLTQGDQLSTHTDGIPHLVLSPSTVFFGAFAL
In words: cell-based or functional assay.

Experiment [2] deals with human tumor necrosis factor-alpha (hTNFα) (human) (UniProt P01375). Put plainly: cell-based or functional assay.
human tumor necrosis factor-alpha (hTNFα) (human), sequence (P01375 77-233): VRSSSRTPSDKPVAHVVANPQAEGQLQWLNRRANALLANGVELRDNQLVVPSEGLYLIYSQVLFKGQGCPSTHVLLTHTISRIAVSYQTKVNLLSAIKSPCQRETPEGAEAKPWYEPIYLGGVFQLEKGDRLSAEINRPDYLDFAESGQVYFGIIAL

In experiment [1], “p55-sf2 (p55 TNF receptor/IgG1 heavy chain single fusion with truncated light chain JCK) (from UniProt P19438 3-159) (Fc fusion)” had an amount needed for the same inhibition of human TNFβ, against p75P-sf2 of 3 fold.

With “p75-sf2 (complete extracellular domain of p75 fused to the IgG1 heavy chain) (from UniProt P20333 23-257) (Fc fusion)”, in experiment [1], the amount needed for the same inhibition of human TNFβ, against p75P-sf2 turned out to be 3 fold.

B1: chimeric mouse/human IgG1 anti-platelet mAb (7E3) (antibody, INN chains, looked up, V domains shown)
VH: EVQLQQSGTVLARPGASVKMSCEASGYTFTNYWMHWVKQRPGQGLEWIGAIYPGNSDTSYIQKFKGKAKLTAVTSTTSVYMELSSLTNEDSAVYYCTLYDGYYVFAYWGQGTLVTVSA
VL: EIVLTQSPVTLSVTPGDSVSLSCRASRDISNNLHWFQQTSHESPRLLIKYASQSMSGIPSRFSGSGSGTDFTLSINSVETEDFGMYFCQQTNSWPYTFGGGTKLEIK
modifications: chimeric IgG1
In experiment [2], B1 returned an IL-6 secreted by FS-4 fibroblasts, 0.3 ng/ml rhTNF with 4 µg/ml antibody (no antibody: 1.36) of 1.6 ng/mL; an IL-6 secreted by FS-4 fibroblasts, 1.5 ng/ml rhTNF with 4 µg/ml antibody (no antibody: 2.00) of 1.96 ng/mL; an IL-6 secreted by FS-4 fibroblasts, 7.5 ng/ml rhTNF with 4 µg/ml antibody (no antibody: 2.56) of 2.16 ng/mL.
